# Source: paper PMC10200060 (2023)
# B1: lactoferrin-glycyrrhizin conjugate Lf-GL (1:15) (other)
# chain: GRRRSVQWCAVSQPEATKCFQWQRNMRKVRGPPVSCIKRDSPIQCIQAIAENRADAVTLDGGFIYEAGLAPYKLRPVAAEVYGTERQPRTHYYAVAVVKKGGSFQLNELQGLKSCHTGLRRTAGWNVPIGTLRPFLNWTGPPEPIEAAVARFFSASCVPGADKGQFPNLCRLCAGTGENKCAFSSQEPYFSYSGAFKCLRDGAGDVAFIRESTVFEDLSDEAERDEYELLCPDNTRKPVDKFKDCHLARVPSHAVVARSVNGKEDAIWNLLRQAQEKFGKDKSPKFQLFGSPSGQKDLLFKDSAIGFSRVPPRIDSGLYLGSGYFTAIQNLRKSEEEVAARRARVVWCAVGEQELRKCNQWSGLSEGSVTCSSASTTEDCIALVLKGEADAMSLDGGYVYTAGKCGLVPVLAENYKSQQSSDPDPNCVDRPVEGYLAVAVVRRSDTSLTWNSVKGKKSCHTAVDRTAGWNIPMGLLFNQTGSCKFDEYFSQSCAPGSDPRSNLCALCIGDEQGENKCVPNSNERYYGYTGAFRCLAENAGDVAFVKDVTVLQNTDGNNNEAWAKDLKLADFALLCLDGKRKPVTEARSCHLAMAPNHAVVSRMDKVERLKQVLLHQQAKFGRNGSDCPDKFCLFQSETKNLLFNDNTECLARLHGKTTYEKYLGPQYVAGITNLKKCSTSPLLEACEFLRK
# modifications: glycyrrhizin (oxidised with sodium periodate) coupled to amines of Lf by Schiff-base reaction and reduction with NaBH3CN; ratio Lf:GL 1:15 as printed; modified residues not identified
# B2: lactoferrin-glycyrrhizin conjugate Lf-GL (1:4) (other)
# chain: B1 chain
# modifications: glycyrrhizin (oxidised with sodium periodate) coupled to amines of Lf by Schiff-base reaction and reduction with NaBH3CN; ratio Lf:GL 1:4 as printed; modified residues not identified
# B3: lactoferrin human (Lf) (natural protein)
# chain: B1 chain
# B4: lactoferrin-glycyrrhizin conjugate Lf-GL (1:10) (other)
# chain: B1 chain
# modifications: glycyrrhizin (oxidised with sodium periodate) coupled to amines of Lf by Schiff-base reaction and reduction with NaBH3CN; binding ratio Lf:GL 1:10 (1:9.6 by MALDI-TOF, 86,727.3 Da); modified residues not identified
# Target: T1, human recombinant HMGB1 protein (high-mobility group box-1) (human, UniProt P09429 1-215)
# T1 chain: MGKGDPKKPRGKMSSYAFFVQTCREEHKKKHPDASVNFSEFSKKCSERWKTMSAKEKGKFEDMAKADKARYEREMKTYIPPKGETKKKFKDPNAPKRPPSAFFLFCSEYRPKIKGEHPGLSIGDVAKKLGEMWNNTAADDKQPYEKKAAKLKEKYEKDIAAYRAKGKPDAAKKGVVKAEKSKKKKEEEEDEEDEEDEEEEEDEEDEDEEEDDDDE
# Experiment: SPR
row,Binder,koff [s⁻¹]
1,B1,0.000965
2,B2,0.00158
3,B3,0.0134
4,B4,0.000311
